{
  "source": "the DeepSol protein solubility set",
  "data": [
    {"test": "soluble on expression in E. coli; label from the status in PepcDB or PDB records", "values": [
      {"sequence": "MDQAELSIEQVLKRDIPWETYMNTKLVSAKGLQLLRRYDKKPESARAQLLDEDGPAYVHLFVSILRDIFKEETVEYVLALIYEMLSANPTRARLFHDESLANEDTYEPFLRLLWKGNWFIQEKSCKILAWIISARPKAGNAVIGNGIDDVLKGLVEWLCAQLKQPSHPTRGVPIAISCLSSLLKEPVVRSSFVQADGVKLLVPLISPASTQQSIQLLYETCLCIWLLSYYEPAIEYLATSRTMQRLTEVVKHSTKEKVVRVVILTFRNLLPKGTFGAQMVDLGLPHIIHSLKTQAWSDEDLLDALNQLEEGLKDKIKKLSSFDKYKQEVLLGHLDWNPMHKETNFWRENVTCFEENDFQILRVLLTILDTSSDPRSLAVACFDISQFIQYHAAGRVIVADLKAKERVMKLINHENAEVTKNAILCIQRLLLGAKYASFLQA", "soluble on expression in E. coli": "soluble"},
      {"sequence": "MHNYLDFEKPISDLEGKILELKKLASEDESVNTSDEIARLEGRVRDAMVEIYSKLSPWQKTQVARHPSRPHFLDYASRLFTEFTPLAGDRNFANDDAIQAGLARFHGTPVAVIGQEKGNDTKSRIKHNFGSPRPEGYRKATRIMEMADRFGLPLITLVDTAGAYPGVNAEERGQAEAIARSTEMCLNVKVPIVTVVIGEGGSGGAIAIATGNRVYMLEHAIYSVISPEGAASILWRDSTRAKEAASNMKITAEDLKSLGVIDGIIPEPVGGAHRDPDAVISRTETVIGDALKELSARNGDELRADRRQKYLNIGRNL", "soluble on expression in E. coli": "not soluble"},
      {"sequence": "PYKASKSRGLVVSNIYSRYDINELESGLMRVSQNKYSPDNYLFQEGQYLDKETLEKWLDRKSEKNPNGLNPESNGDGKDRKPIYLAHILEQDYLKQTDKDTVALGGISIALAMNSVDYYQKEQYGDTFEQEISDSDLLAQGKEMSGTVLNRIRQTKGLENVPVTIAIYKQGPRDAVAPGNFLTYATANGDSLSSWKDVEEKNYVLPSTESAKDHKTDNDNFLNFKKAIEDYYPNFTGVVGRARYEDGQLAELSIDIPLQFYGQAEIIGFTQYVTDLVGQHIPKTADLQVNISTSDGPAALITRKANEDAATA", "soluble on expression in E. coli": "not soluble"},
      {"sequence": "MEQIGAALQQTLEPDAAIRKRGEEALRSLQSNPGYIIQILQLVVNEQQQIAPQIRIAAAVALKNFVKRNWGPAPEVEMGQEDEEQFRSMLLEAMFNTKSNVQEILSNALYLIAQRDFPEKWPDLVPYLSKFLNGADLNHLVASLASMEQIFRKFRFESKSAELWKELKKCLLSTQEPLTLLLRNMMEVGQRKDQLGADEIAQWLRVLLLIAKVYHSLCSQEIPEYFEDHLKDWMPHFLHLVQIDAPTQTSNSGEPTTLDELKHEICEIFTLYSQRYEEEISEFVPDIILAVWNLLKSTGPDTRYDTMVCAALEFLSMVSQRQYYEGHFTGEGVLKTLAENVCVQNLLLRQQDMELFEDEPLDYMKRDIEGTDVGTRRRGAIDLARGLCRRFEAQMLPCLGEIVQNLLGSGDWIKIDIVYSLITAIAVKTETAKSGVTATNPLVDINDFFITQVATHLNADVNQTPILKADALKFAVTFRKQLAPEHLMTAIKSADALLSSNTPILHKYAAYAIEKILLADSNKIFSAQNLPVSSILQNLVTAFDKDAKAQNSPYLIKAILRIIVILDDDTIRHADAIAVKLAQLVESATKNPADSVHTHFLFETICVLITKTRTIGASLDAQLLPLIEVIFREDLEDLIPYALQITGVLVSSCIARNSSIDQFSPFLPFLLSERLWARSANVPAALSVLEVILSVNAQRVVSENSGLILSHLARLLGSKTLDQYGFQLAATILPSIEHFEGSAMTFVLNTMFRRVQSSKTPKFMKLFIVFLCRFTIARSAQDLVQSCENIQTGMFGMLIEKVVCIDLPGLKQTTTGPEKRIIAIGMGNLLADVTQQLVGQYGILSYEVAMLLEAASASDRAVLSPEEEQASMYNAEGEFVNPFCRLSYAPKQPPVAANIANHKAYFAQAVLVRGPGNCPETLRSVPPEIVTYLQSIQQ", "soluble on expression in E. coli": "not soluble"},
      {"sequence": "MRGSHHHHHHTDPINKDIYQALQQLIPNEKIKVDEPLKRYTYTKTGGNADFYITPTKNEEVQAVVKYAYQNEIPVTYLGNGSNIIIREGGIRGIVISLLSLDHIEVSDDAIIAGSGAAIIDVSRVARDYALTGLEFACGIPGSIGGAVYMNAGAYGGEVKDCIDYALCVNEQGSLIKLTTKELELDYRNSIIQKEHLVVLEAAFTLAPGKMTEIQAKMDDLTERRESKQPLEYPSCGSVFQRPPGHFAGKLIQDSNLQGHRIGGVEVSTKHAGFMVNVDNGTATDYENLIHYVQKTVKEKFGIELNREVRIIGEHPKESLQPSLIS", "soluble on expression in E. coli": "soluble"},
      {"sequence": "SMSYESPFHLNDAVAIVTGAAAGIGRAIAGTFAKAGASVVVTDLKSEGAEAVAAAIRQAGGKAIGLECNVTDEQHREAVIKAALDQFGKITVLVNNAGGGGPKPFDMPMSDFEWAFKLNLFSLFRLSQLAAPHMQKAGGGAILNISSMAGENTNVRMASYGSSKAAVNHLTRNIAFDVGPMGIRVNAIAPGAIKTDALATVLTPEIERAMLKHTPLGRLGEAQDIANAALFLCSPAAAWISGQVLTVSGGGVQELD", "soluble on expression in E. coli": "soluble"},
      {"sequence": "MAHHHHHHMDTDKIKKRINAYNQDGIRNSALAIILCHRYEYPHLLLLQNIESQTYHLLSGKYKSWEKPREVLKKKLQKYVNQIRDMHFGTSHFNTEEKETEDPIEIGEFLGEWWKTQFNSVYLPYLPAHITRPKEYIRLYQVTLTSRCIFHLPPGFTLKALPLFDLSTCGVAIGGLTSVLSRFKLHCMVPVEE", "soluble on expression in E. coli": "not soluble"},
      {"sequence": "EVSTTQNDTLKVMTHNVYMLSTNLYPNWGQTERADLIGAADYIKNQDVVILNEVFDNSASDRLLGNLKKEYPNQTAVLGRSSGSEWDKTLGNYSSSTPEDGGVAIVSKWPIAEKIQYVFAKGCGPDNLSNKGFVYTKIKKNDRFVHVIGTHLQAEDSMCGKTSPASVRTNQLKEIQDFIKNKNIPNNEYVLIGGDMNVNKINAENNNDSEYASMFKTLNASVPSYTGHTATWDATTNSIAKYNFPDSPAEYLDYIIASKDHANPSYIENKVLQPKSPQWTVTSWFQKYTYNDYSDHYPVEATISMK", "soluble on expression in E. coli": "soluble"},
      {"sequence": "MYLTKEEELALSGEYGPAIQKAMEILVALGDIYNADRLIPIKSAQIAGVSYKNIGDEGIEFLRDFVEAGAKVSVYTTLNPAGIGDEDFMEKQAEIIELYRKMGVEITSTCTPYYGPNLPKYGDHLAWSESSAVIFANSVLGARTNREGGPSSLAAAIVGKTPNYGLHLEENRKATHIIEVKDKLKSRTEYSLLGYKIGEIVENGVPYIRGIAPTTEDLKALGASMAASGGVGLYHVEGSTPEWRGAIVDKIEKIEIGRKDLEDVRQRFSVDWGDVDIILLGCPHASLREIKEIAELLRMRDKPLKIPLFITVSRGIKALADYLGYTEIIERYNGKLLPDVCLVVSPIKEWYSGVATDSGKAAFYLKSFGLKVLLDTTENIIMGAPLEHHHHHH", "soluble on expression in E. coli": "not soluble"},
      {"sequence": "MAVYRNVQVNFWQDDFVLDLTPEERYFYVYLLTCSKTTQCGIFPFPKRLAEMETGYNRETVDKLVQRFVDYGKILYDADTRELFVLNWLRYNPVTNTNVEKCVLRELKSVKNKEFVHMFLQKCVEEELNVPMLLAHFGMPSDLAVDDVEPVCEETEAEEEVIEEETGSRVFSFYEQHFGSLSPFAVEELSAWMEDLSEELVLKALQIAFENNKRTVAYVKGILRGWHGKGFTKVCEVEADTAKFRKKESSVSTGETEEFLARCEEWEKNAPSEEELQRFLAERGWRP", "soluble on expression in E. coli": "not soluble"},
      {"sequence": "MNIQCKRVYDPAEQSDGYRILVDRLWPRGIKKTDLALDEWDKEITPSTELRKAFHGEVVDYATFREQYLAELAQHEQEGKRLADIAKKQPLTLLYSAKNTTQNHALVLADWLRSL", "soluble on expression in E. coli": "soluble"},
      {"sequence": "MGSDKIHHHHHHMIPSQHFQSTPTVQFDLLTYMIGSYHYNWHPQIELLWLLQGTVEVNVDGTRHQLHANDLILINANRGHATFALTPECIALRLHILPDFYTNQGIDLSSGAFLLNSVTTPQHRDYQTIRQILAQLYLGLHQQDWPIFDLNALYFQLTNLLHHDFFDTGITMTYPQPKTQSSLNRVIDYINQAYDRPITLNEAAKISHYSPAYLSRIFKAELGLNFYEYLTRCRLQHAIYDLENPTTRVADLALANGFQEVKSFNLMFKKHFGQTPSSYRQHLSHGQRPEYDQFKQPLTPTQTTIVQKQLNHWAQLTSTDQLSACESCMYKLHFQEYQALKQKIAQLKTLLNQ", "soluble on expression in E. coli": "not soluble"},
      {"sequence": "MGHHHHHHSHMAVASTSTSDGMLTLDLIQEEDPSPEEPTSCAESFRVDLDKSVAQLAGSRRRADSDRIQPSADRASSLSRPWEKTDKGATYTPQAPKKLTPTEKGRCASLEEILSQRDAASARTLQLRAEEPPTPALPNPGQLSRIQDLVARKLEETQELLAEVQGLGDGKRKAKDPPRSPPDSESEQLLLETERLLGEASSNWSQAKRVLQEVRELRDLYRQMDLQTPDSHLRQTTPHSQYRKSLM", "soluble on expression in E. coli": "not soluble"},
      {"sequence": "MGHHHHHHSHMGRGSGTFERLLDKATSQLLLETDWESILQICDLIRQGDTQAKYAVNSIKKKVNDKNPHVALYALEVMESVVKNCGQTVHDEVANKQTMEELKDLLKRQVEVNVRNKILYLIQAWAHAFRNEPKYKVVQDTYQIMKVEGHVFPEFKESDAMFAAERAPDWVDAEECHRCRVQFGVMTRKHHCRACGQIFCGKCSSKYSTIPKFGIEKEVRVCEPCYEQLNRKAEGK", "soluble on expression in E. coli": "soluble"},
      {"sequence": "MDDILVTSDLTSRYKISRKTLWSWQSADTMPRGFVCPFPPPDWPGNPNRWRSESIKEWEDKKKIN", "soluble on expression in E. coli": "not soluble"},
      {"sequence": "MPKLSAFYYQVLEDFGYIYDSSITVPPVPVPVWPYTLDYKISHECKSGTCPSRTFPGVWEVPLNTHYVEGYEGGHCPYLDQCVLHNLDEEEVFQWLQEDFSRYYEQNKAPYMMPFHTNWFQTKPLENGLHKFLDWALELLEHHHHHH", "soluble on expression in E. coli": "not soluble"},
      {"sequence": "MELADVGAAASSQGVHDQVLPTPNASSRVIVHVDLDCFYAQVEMISNPELKDKPLGVQQKYLVVTCNYEARKLGVKKLMNVRDAKEKCPQLVLVNGEDLTRYREMSYKVTELLEEFSPVVERLGFDENFVDLTEMVEKRLQQLQSDELSAVTVSGHVYNNQSINLLDVLHIRLLVGSQIAAEMREAMYNQLGLTGCAGVASNKLLAKLVSGVFKPNQQTVLLPESCQHLIHSLNHIKEIPGIGYKTAKCLEALGINSVRDLQTFSPKILEKELGISVAQRIQKLSFGEDNSPVILSGPPQSFSEEDSFKKCSSEVEAKNKIEELLASLLNRVCQDGRKPHTVRLIIRRYSSEKHYGRESRQCPIPSHVIQKLGTGNYDVMTPMVDILMKLFRNMVNVKMPFHLTLLSVCFCNLKALNTAK", "soluble on expression in E. coli": "soluble"},
      {"sequence": "MRRRGKGGGSVFYHEGKGKWVAQLTWIDPATGRKVKREKHCETRKEAERALADMVVAQAKGLLTDPSRLTTRDFALDYLKRLEREGLRPNSIRLAQEELAHALPSLKDPKAHDPLGRMRLQEVKPVHVRAAVDRVAEAGYAPRTVGRVLMRLKALFREALRLELVARNPAEAVRLRLPKGEKTARALEPQEVARLLETAEASRSKDMALLLRLMLETGLRRGEALALQWRDIDLEAGELTVWRSWTKARGKGAFSEPKTPTAKRKVPLPRGLLLRLKARREELLERLTPKEVDGLFLVGGVKPVDPDAFNHYLRRLAERAGLGRVRVHDLRHTWATLALSRGVPLEVVSERLGHASPTITLNVYRHLLEEERRGWVLDLEELLYPAPRAQA", "soluble on expression in E. coli": "soluble"},
      {"sequence": "MKVGNQMNEEQLSKRLEKVASYITKNERIADIGSDHAYLPCFAVKNQTASFAIAGEVVDGPFQSAQKQVRSSGLTEQIDVRKGNGLAVIEKKDAIDTIVIAGMGGTLIRTILEEGAAKLAGVTKLILQPNIAAWQLREWSEQNNWLITSEAILREDNKVYEIMVLAPSEKPVTWTKQEIFFGPCLLKEQSAIFKSKWRHEANTWQNIIQTISNNQPVSTENQAKIRELEHKIALVEDVLK", "soluble on expression in E. coli": "not soluble"}
    ]}
  ]
}
